The results in this text go back to the supplement of paper PMC10567573.

Sequences and labels used below:
B1: PPEF2 (parent)
chain: AFKAAALIQRWYRRYVARLEMRRR
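Also: lentivirally expressed fusions sorted by FACS into six bins by GFP to DsRed ratio, PSI derived from sequencing read proportions per bin multiplied by bin number.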

Variants of B1 are the subject of this series. Kind of series: protein stability index of a GFP-peptide fusion (GPS, HEK-293T) (PSI 1-6); higher = more stable. The following applies: c terminus: a fixed tail appended.
As to AFKATALIQRWYRRYVARLEMRRR [A5T], the protein stability index amounted to 2.55.

With AFKAIALIQRWYRRYVARLEMRRR [A5I], the protein stability index was found to be 2.4.

For AFKAFALIQRWYRRYVARLEMRRR [A5F], the protein stability index was determined as 1.98.

Take AFKAHALIQRWYRRYVARLEMRRR [A5H]: the protein stability index stood at 2.67.

In the case of AFKAPALIQRWYRRYVARLEMRRR [A5P], the protein stability index stood at 2.08.

Turning to AFKAEALIQRWYRRYVARLEMRRR [A5E], the protein stability index came out at 4.4.

Regarding AFKANALIQRWYRRYVARLEMRRR [A5N], the protein stability index was 2.11.

Turning to AFKAQALIQRWYRRYVARLEMRRR [A5Q], the protein stability index worked out at 1.85.

For AFKAGALIQRWYRRYVARLEMRRR [A5G], the protein stability index was determined as 2.94.

As for AFKARALIQRWYRRYVARLEMRRR [A5R], the protein stability index came to 2.39.

Turning to AEKAAALIQRWYRRYVARLEMRRR [F2E], the protein stability index was 4.95.

As for AAKAAALIQRWYRRYVARLEMRRR [F2A], the protein stability index was 3.87.

As for AYKAAALIQRWYRRYVARLEMRRR [F2Y], the protein stability index was 3.46.

As to ANKAAALIQRWYRRYVARLEMRRR [F2N], the protein stability index came out at 3.3.

With APKAAALIQRWYRRYVARLEMRRR [F2P], the protein stability index came to 3.78.

As to AGKAAALIQRWYRRYVARLEMRRR [F2G], the protein stability index stood at 2.87.

Turning to ADKAAALIQRWYRRYVARLEMRRR [F2D], the protein stability index was determined as 3.53.

On to ARKAAALIQRWYRRYVARLEMRRR [F2R], for which the protein stability index is 3.76.

With AWKAAALIQRWYRRYVARLEMRRR [F2W], the protein stability index was 3.79.

For the variant AMKAAALIQRWYRRYVARLEMRRR [F2M], the protein stability index is 3.8.

ALKAAALIQRWYRRYVARLEMRRR [F2L]: the protein stability index stood at 3.99.

For AKKAAALIQRWYRRYVARLEMRRR [F2K], the protein stability index amounted to 3.04.

As to AFKAAALITRWYRRYVARLEMRRR [Q9T], the protein stability index is 3.39.

With AFKAAALIYRWYRRYVARLEMRRR [Q9Y], the protein stability index came out at 2.23.

In the case of AFKAAALIDRWYRRYVARLEMRRR [Q9D], the protein stability index is 1.86.

In the case of AFKAAALINRWYRRYVARLEMRRR [Q9N], the protein stability index is 2.1.

On to AFKAAALIIRWYRRYVARLEMRRR [Q9I], for which the protein stability index turned out to be 2.27.

As for AFKAAALIKRWYRRYVARLEMRRR [Q9K], the protein stability index is 3.59.

Turning to AFKAAALIMRWYRRYVARLEMRRR [Q9M], the protein stability index was determined as 2.37.

Turning to AFKAAALIERWYRRYVARLEMRRR [Q9E], the protein stability index was 1.59.

In the case of AFKAAALICRWYRRYVARLEMRRR [Q9C], the protein stability index is 2.71.

On to AFKAAALILRWYRRYVARLEMRRR [Q9L], for which the protein stability index worked out at 3.44.

Take AFKAAALIARWYRRYVARLEMRRR [Q9A]: the protein stability index was 3.25.

Turning to AFKAAALIFRWYRRYVARLEMRRR [Q9F], the protein stability index is 2.85.

As for AFKAAALISRWYRRYVARLEMRRR [Q9S], the protein stability index turned out to be 2.54.

With AFKAAALIWRWYRRYVARLEMRRR [Q9W], the protein stability index was determined as 2.98.

For AFKAAALIVRWYRRYVARLEMRRR [Q9V], the protein stability index came to 2.99.

As to AFKAAALIHRWYRRYVARLEMRRR [Q9H], the protein stability index was determined as 2.16.

As to AFKAAALIRRWYRRYVARLEMRRR [Q9R], the protein stability index stood at 3.48.

As for CFKAAALIQRWYRRYVARLEMRRR [A1C], the protein stability index was found to be 3.54.

Turning to RFKAAALIQRWYRRYVARLEMRRR [A1R], the protein stability index stood at 3.66.

GFKAAALIQRWYRRYVARLEMRRR [A1G]: the protein stability index amounted to 2.17.

For HFKAAALIQRWYRRYVARLEMRRR [A1H], the protein stability index came to 2.59.

With QFKAAALIQRWYRRYVARLEMRRR [A1Q], the protein stability index was determined as 3.52.

Regarding NFKAAALIQRWYRRYVARLEMRRR [A1N], the protein stability index is 3.6.

Regarding PFKAAALIQRWYRRYVARLEMRRR [A1P], the protein stability index amounted to 3.44.

EFKAAALIQRWYRRYVARLEMRRR [A1E]: the protein stability index came out at 4.09.

On to FFKAAALIQRWYRRYVARLEMRRR [A1F], for which the protein stability index was found to be 2.62.

With TFKAAALIQRWYRRYVARLEMRRR [A1T], the protein stability index worked out at 3.4.

As for MFKAAALIQRWYRRYVARLEMRRR [A1M], the protein stability index came to 3.01.

Take DFKAAALIQRWYRRYVARLEMRRR [A1D]: the protein stability index turned out to be 2.36.

IFKAAALIQRWYRRYVARLEMRRR [A1I]: the protein stability index was 3.77.

Consider WFKAAALIQRWYRRYVARLEMRRR [A1W], for which the protein stability index amounted to 1.77.

Regarding VFKAAALIQRWYRRYVARLEMRRR [A1V], the protein stability index came out at 3.96.

On to LFKAAALIQRWYRRYVARLEMRRR [A1L], for which the protein stability index stood at 4.05.

AFKAAALIQTWYRRYVARLEMRRR [R10T]: the protein stability index came to 2.1.

For AFKAAALIQDWYRRYVARLEMRRR [R10D], the protein stability index stood at 1.67.

With AFKAAALIQAWYRRYVARLEMRRR [R10A], the protein stability index worked out at 2.4.

In the case of AFKAAALIQLWYRRYVARLEMRRR [R10L], the protein stability index was found to be 1.71.

For the variant AFKAAALIQHWYRRYVARLEMRRR [R10H], the protein stability index was 2.51.

On to AFKAAALIQFWYRRYVARLEMRRR [R10F], for which the protein stability index was determined as 2.88.

For AFKAAALIQSWYRRYVARLEMRRR [R10S], the protein stability index is 2.27.

Regarding AFKAAALIQGWYRRYVARLEMRRR [R10G], the protein stability index turned out to be 1.88.

As for AFKAAALIQNWYRRYVARLEMRRR [R10N], the protein stability index was 3.6.

For AFKMAALIQRWYRRYVARLEMRRR [A4M], the protein stability index came out at 2.25.

As for AFKRAALIQRWYRRYVARLEMRRR [A4R], the protein stability index was 3.46.

For AFKPAALIQRWYRRYVARLEMRRR [A4P], the protein stability index turned out to be 2.38.

Take AFKGAALIQRWYRRYVARLEMRRR [A4G]: the protein stability index is 3.69.

Take AFKKAALIQRWYRRYVARLEMRRR [A4K]: the protein stability index was determined as 3.27.

For AFKVAALIQRWYRRYVARLEMRRR [A4V], the protein stability index came to 2.55.

As for AFKSAALIQRWYRRYVARLEMRRR [A4S], the protein stability index came to 2.13.

Take AFKFAALIQRWYRRYVARLEMRRR [A4F]: the protein stability index turned out to be 3.17.

For AFKCAALIQRWYRRYVARLEMRRR [A4C], the protein stability index amounted to 3.15.

As to AFIAAALIQRWYRRYVARLEMRRR [K3I], the protein stability index came out at 2.66.

Turning to AFDAAALIQRWYRRYVARLEMRRR [K3D], the protein stability index was determined as 2.27.

On to AFCAAALIQRWYRRYVARLEMRRR [K3C], for which the protein stability index amounted to 1.86.

Regarding AFRAAALIQRWYRRYVARLEMRRR [K3R], the protein stability index was 3.84.

Consider AFLAAALIQRWYRRYVARLEMRRR [K3L], for which the protein stability index was 1.75.

Regarding AFYAAALIQRWYRRYVARLEMRRR [K3Y], the protein stability index was determined as 2.87.

As to AFSAAALIQRWYRRYVARLEMRRR [K3S], the protein stability index came out at 4.09.

Take AFFAAALIQRWYRRYVARLEMRRR [K3F]: the protein stability index was 2.38.

As for AFEAAALIQRWYRRYVARLEMRRR [K3E], the protein stability index was found to be 3.71.

For AFKAAALIQRLYRRYVARLEMRRR [W11L], the protein stability index is 3.79.

On to AFKAAALIQRSYRRYVARLEMRRR [W11S], for which the protein stability index was 4.12.

Consider AFKAAALIQRMYRRYVARLEMRRR [W11M], for which the protein stability index came out at 2.84.

Regarding AFKAAALIQRFYRRYVARLEMRRR [W11F], the protein stability index was 3.99.

In the case of AFKAAALIQRAYRRYVARLEMRRR [W11A], the protein stability index was 4.29.

AFKAAALIQRNYRRYVARLEMRRR [W11N]: the protein stability index was 4.17.

For AFKAAALIQRIYRRYVARLEMRRR [W11I], the protein stability index is 2.81.

AFKAAALIQRKYRRYVARLEMRRR [W11K]: the protein stability index came out at 5.21.

As to AFKAAALIQRQYRRYVARLEMRRR [W11Q], the protein stability index worked out at 2.57.

Consider AFKAAALIQRDYRRYVARLEMRRR [W11D], for which the protein stability index is 2.79.

For AFKAAALIQRPYRRYVARLEMRRR [W11P], the protein stability index turned out to be 2.62.

Regarding AFKAAALIQRHYRRYVARLEMRRR [W11H], the protein stability index turned out to be 2.28.
